# Data from PMC9482650, “Quantitative fragmentomics allow affinity mapping of interactomes” (Nature Communications, 2022).
# T1: PDZD11, Q5EBL8
# T1 sequence (Q5EBL8 42-139, limits assumed, looked up): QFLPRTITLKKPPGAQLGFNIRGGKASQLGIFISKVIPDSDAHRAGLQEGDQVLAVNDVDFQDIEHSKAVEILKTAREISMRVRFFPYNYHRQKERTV
# T2: SHANK2, Q9UPX8
# T2 sequence (Q9UPX8 621-730, limits assumed, looked up): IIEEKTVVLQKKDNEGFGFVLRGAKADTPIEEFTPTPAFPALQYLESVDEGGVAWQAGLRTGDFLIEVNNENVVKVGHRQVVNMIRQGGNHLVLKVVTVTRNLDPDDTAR
# T3: PDLIM3, Q53GG5
# T3 sequence (Q53GG5 1-94, limits assumed, looked up): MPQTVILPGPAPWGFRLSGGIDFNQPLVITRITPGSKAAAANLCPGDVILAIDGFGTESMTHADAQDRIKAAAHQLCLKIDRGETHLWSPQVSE
# T4: INTU, Q9ULD6
# T4 sequence (Q9ULD6 180-273, limits assumed, looked up): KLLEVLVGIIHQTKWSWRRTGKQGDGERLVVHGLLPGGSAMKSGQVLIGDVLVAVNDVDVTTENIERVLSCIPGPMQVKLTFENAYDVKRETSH
# T5: PDZD2_6, O15018
# T5 sequence (O15018 2745-2839, limits assumed, looked up): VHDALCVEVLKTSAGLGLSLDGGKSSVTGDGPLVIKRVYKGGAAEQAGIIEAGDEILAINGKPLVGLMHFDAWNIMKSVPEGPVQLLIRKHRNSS
# T6: MPDZ_11, O75970
# T6 sequence (O75970 1720-1817, limits assumed, looked up): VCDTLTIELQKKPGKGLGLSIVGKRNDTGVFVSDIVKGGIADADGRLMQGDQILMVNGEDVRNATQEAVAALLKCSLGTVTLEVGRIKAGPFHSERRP
# T7: MLLT4, P55196
# T7 sequence (P55196 1002-1103, limits assumed, looked up): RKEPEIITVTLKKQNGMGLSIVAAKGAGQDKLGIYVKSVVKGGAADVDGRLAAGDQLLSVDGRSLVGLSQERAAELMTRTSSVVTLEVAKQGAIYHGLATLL
# T8: PREX2_2, Q70Z35
# T8 sequence (Q70Z35 672-764, limits assumed, looked up): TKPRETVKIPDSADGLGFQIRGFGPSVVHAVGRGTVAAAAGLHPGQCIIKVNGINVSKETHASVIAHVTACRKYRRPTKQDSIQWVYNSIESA
# T9: PARD6G, Q9BYG4
# T9 sequence (Q9BYG4 153-261, limits assumed, looked up): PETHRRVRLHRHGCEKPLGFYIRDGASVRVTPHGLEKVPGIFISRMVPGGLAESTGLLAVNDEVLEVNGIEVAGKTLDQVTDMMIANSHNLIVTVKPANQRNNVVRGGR
# T10: NHERF3_2, Q5T2W1
# T10 sequence (Q5T2W1 129-225, limits assumed, looked up): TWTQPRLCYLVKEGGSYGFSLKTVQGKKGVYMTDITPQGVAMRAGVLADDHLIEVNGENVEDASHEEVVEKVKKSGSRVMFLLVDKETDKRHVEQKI
# T11: PDZD8, Q8NEN9
# T11 sequence (Q8NEN9 361-459, limits assumed, looked up): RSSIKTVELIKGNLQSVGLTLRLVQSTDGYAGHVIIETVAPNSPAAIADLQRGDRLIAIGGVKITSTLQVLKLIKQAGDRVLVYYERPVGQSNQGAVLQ
# T12: LNX2_4, Q8N448
# T12 sequence (Q8N448 595-690, limits assumed, looked up): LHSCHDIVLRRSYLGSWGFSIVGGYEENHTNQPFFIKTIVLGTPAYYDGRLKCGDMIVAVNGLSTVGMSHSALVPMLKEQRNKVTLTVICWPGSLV
# B1: DGKK, Q5KSL6 (peptide)
# chain: DPLTPSRSQL
# B2: MAP2K2, P36507 (peptide)
# chain: QPGTPTRTAV
# B3: ASIC3, Q9UHC3 (peptide)
# chain: HRTCYLVTQL
# Molecular target: O60759
# Test: holdup assay
# Set-up: key: below the threshold = too weak to quantify, mostly under pKd 3.1 to 4
# Details: plain residues with an end cap or a label only (N-terminal biotin on a linker: ttds)
row,pKd,Binder
1,below the threshold,B1
2,below the threshold,B2
3,below the threshold,B3

# Molecular target: T1, PDZD11, Q5EBL8
# Test: holdup assay
# Set-up: key: below the threshold = too weak to quantify, mostly under pKd 3.1 to 4
# Details: plain residues with an end cap or a label only (N-terminal biotin on a linker: ttds)
row,pKd,Binder
1,below the threshold,B1
2,below the threshold,B2
3,below the threshold,B3

# Molecular target: Q96JB8
# Test: holdup assay
# Set-up: key: below the threshold = too weak to quantify, mostly under pKd 3.1 to 4
# Details: plain residues with an end cap or a label only (N-terminal biotin on a linker: ttds)
row,pKd,Binder
1,below the threshold,B1
2,below the threshold,B2
3,below the threshold,B3

# Molecular target: T2, SHANK2, Q9UPX8
# Test: holdup assay
# Set-up: key: below the threshold = too weak to quantify, mostly under pKd 3.1 to 4
# Details: plain residues with an end cap or a label only (N-terminal biotin on a linker: ttds)
row,pKd,Binder
1,below the threshold,B1
2,below the threshold,B2
3,4.93,B3

# Molecular target: Q8TEW0
# Test: holdup assay
# Set-up: key: below the threshold = too weak to quantify, mostly under pKd 3.1 to 4
# Details: plain residues with an end cap or a label only (N-terminal biotin on a linker: ttds)
row,pKd,Binder
1,below the threshold,B1
2,below the threshold,B2
3,below the threshold,B3

# Molecular target: Q9Y3R0
# Test: holdup assay
# Set-up: key: below the threshold = too weak to quantify, mostly under pKd 3.1 to 4
# Details: plain residues with an end cap or a label only (N-terminal biotin on a linker: ttds)
row,pKd,Binder
1,below the threshold,B1
2,below the threshold,B2
3,below the threshold,B3

# Molecular target: T3, PDLIM3, Q53GG5
# Test: holdup assay
# Set-up: key: below the threshold = too weak to quantify, mostly under pKd 3.1 to 4
# Details: plain residues with an end cap or a label only (N-terminal biotin on a linker: ttds)
row,pKd,Binder
1,below the threshold,B1
2,below the threshold,B2
3,below the threshold,B3

# Molecular target: MAGI3_5, Q5TCQ9
# Test: holdup assay
# Set-up: key: below the threshold = too weak to quantify, mostly under pKd 3.1 to 4
# Details: plain residues with an end cap or a label only (N-terminal biotin on a linker: ttds)
# MAGI3_5, Q5TCQ9, sequence (Q5TCQ9 847-941): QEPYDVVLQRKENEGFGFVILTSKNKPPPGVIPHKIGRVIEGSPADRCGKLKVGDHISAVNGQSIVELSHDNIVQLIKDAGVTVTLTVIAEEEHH
row,pKd,Binder
1,below the threshold,B1
2,below the threshold,B2
3,4.64,B3

# Molecular target: T4, INTU, Q9ULD6
# Test: holdup assay
# Set-up: key: below the threshold = too weak to quantify, mostly under pKd 3.1 to 4
# Details: plain residues with an end cap or a label only (N-terminal biotin on a linker: ttds)
row,pKd,Binder
1,below the threshold,B1
2,below the threshold,B2

# Molecular target: T5, PDZD2_6, O15018
# Test: holdup assay
# Set-up: key: below the threshold = too weak to quantify, mostly under pKd 3.1 to 4
# Details: plain residues with an end cap or a label only (N-terminal biotin on a linker: ttds)
row,pKd,Binder
1,below the threshold,B1
2,below the threshold,B2
3,below the threshold,B3

# Molecular target: T6, MPDZ_11, O75970
# Test: holdup assay
# Set-up: key: below the threshold = too weak to quantify, mostly under pKd 3.1 to 4
# Details: plain residues with an end cap or a label only (N-terminal biotin on a linker: ttds)
row,pKd,Binder
1,below the threshold,B1
2,below the threshold,B2
3,below the threshold,B3

# Molecular target: Q9C0E4
# Test: holdup assay
# Set-up: key: below the threshold = too weak to quantify, mostly under pKd 3.1 to 4
# Details: plain residues with an end cap or a label only (N-terminal biotin on a linker: ttds)
row,pKd,Binder
1,below the threshold,B1
2,below the threshold,B2
3,below the threshold,B3

# Molecular target: Q8IUC4
# Test: holdup assay
# Set-up: key: below the threshold = too weak to quantify, mostly under pKd 3.1 to 4
# Details: plain residues with an end cap or a label only (N-terminal biotin on a linker: ttds)
row,pKd,Binder
1,below the threshold,B1
2,below the threshold,B2
3,below the threshold,B3

# Molecular target: T7, MLLT4, P55196
# Test: holdup assay
# Set-up: key: below the threshold = too weak to quantify, mostly under pKd 3.1 to 4
# Details: plain residues with an end cap or a label only (N-terminal biotin on a linker: ttds)
row,pKd,Binder
1,below the threshold,B1
2,below the threshold,B2
3,below the threshold,B3

# Molecular target: Q9UMS6
# Test: holdup assay
# Set-up: key: below the threshold = too weak to quantify, mostly under pKd 3.1 to 4
# Details: plain residues with an end cap or a label only (N-terminal biotin on a linker: ttds)
row,pKd,Binder
1,below the threshold,B1
2,below the threshold,B2
3,below the threshold,B3

# Molecular target: T8, PREX2_2, Q70Z35
# Test: holdup assay
# Set-up: key: below the threshold = too weak to quantify, mostly under pKd 3.1 to 4
# Details: plain residues with an end cap or a label only (N-terminal biotin on a linker: ttds)
row,pKd,Binder
1,below the threshold,B1
2,below the threshold,B2
3,below the threshold,B3

# Molecular target: Q9P227
# Test: holdup assay
# Set-up: key: below the threshold = too weak to quantify, mostly under pKd 3.1 to 4
# Details: plain residues with an end cap or a label only (N-terminal biotin on a linker: ttds)
row,pKd,Binder
1,below the threshold,B1
2,below the threshold,B2
3,below the threshold,B3

# Molecular target: Q92614
# Test: holdup assay
# Set-up: key: below the threshold = too weak to quantify, mostly under pKd 3.1 to 4
# Details: plain residues with an end cap or a label only (N-terminal biotin on a linker: ttds)
row,pKd,Binder
1,below the threshold,B1
2,below the threshold,B2
3,below the threshold,B3

# Molecular target: O00560
# Test: holdup assay
# Set-up: key: below the threshold = too weak to quantify, mostly under pKd 3.1 to 4
# Details: plain residues with an end cap or a label only (N-terminal biotin on a linker: ttds)
row,pKd,Binder
1,below the threshold,B1
2,below the threshold,B2
3,below the threshold,B3

# Molecular target: T9, PARD6G, Q9BYG4
# Test: holdup assay
# Set-up: key: below the threshold = too weak to quantify, mostly under pKd 3.1 to 4
# Details: plain residues with an end cap or a label only (N-terminal biotin on a linker: ttds)
row,pKd,Binder
1,below the threshold,B1
2,below the threshold,B2
3,below the threshold,B3

# Molecular target: Q9ULJ8
# Test: holdup assay
# Set-up: key: below the threshold = too weak to quantify, mostly under pKd 3.1 to 4
# Details: plain residues with an end cap or a label only (N-terminal biotin on a linker: ttds)
row,pKd,Binder
1,below the threshold,B1
2,below the threshold,B2
3,below the threshold,B3

# Molecular target: T10, NHERF3_2, Q5T2W1
# Test: holdup assay
# Set-up: key: below the threshold = too weak to quantify, mostly under pKd 3.1 to 4
# Details: plain residues with an end cap or a label only (N-terminal biotin on a linker: ttds)
row,pKd,Binder
1,below the threshold,B1
2,below the threshold,B2
3,4.33,B3

# Molecular target: T11, PDZD8, Q8NEN9
# Test: holdup assay
# Set-up: key: below the threshold = too weak to quantify, mostly under pKd 3.1 to 4
# Details: plain residues with an end cap or a label only (N-terminal biotin on a linker: ttds)
row,pKd,Binder
1,below the threshold,B1
2,below the threshold,B2
3,below the threshold,B3

# Molecular target: T12, LNX2_4, Q8N448
# Test: holdup assay
# Set-up: key: below the threshold = too weak to quantify, mostly under pKd 3.1 to 4
# Details: plain residues with an end cap or a label only (N-terminal biotin on a linker: ttds)
row,pKd,Binder
1,below the threshold,B1
2,below the threshold,B2
3,below the threshold,B3

# Molecular target: O00233
# Test: holdup assay
# Set-up: key: below the threshold = too weak to quantify, mostly under pKd 3.1 to 4
# Details: plain residues with an end cap or a label only (N-terminal biotin on a linker: ttds)
row,pKd,Binder
1,below the threshold,B1
2,below the threshold,B2
3,below the threshold,B3
